In test [1] the target is MERS-CoV spike RBD (Middle East respiratory syndrome-related coronavirus) (UniProt K9N5Q8). The conditions noted are these: cited from earlier work.
The target in test [2] is soluble porcine DPP4-IgG1 (porcine) (UniProt P22411). As to the kind of experiment: SPR; BIAcore X-100, CM5 chip, room temperature; soluble DPP4-IgG1 immobilised by amine coupling; S1-RBD injected at 0.125-4.0 µM in 0.01 M HEPES, 0.15 M NaCl, 0.5% surfactant P20, 3 mM EDTA, pH 7.4; reference cell with BSA; steady-state affinity model. Background: SPR reads the build-up and loss of mass on a sensor chip optically.

In test [3] the target is soluble murine DPP4-IgG1 (murine) (UniProt P28843). The test is described as above.
Test [4] deals with PHEV spike S1 receptor-binding domain, Fc-tagged. As to the kind of experiment: co-immunoprecipitation, quantified band intensity. The conditions noted are these: 293T cells; n = 3; parent: est. 100; read off a plot.

Broadly, the Kd is the constant that tells how readily two partners part at equilibrium.

DPP4 (from UniProt P27487): in test [1], the dissociation constant Kd is 17 nM.

As for “monomeric PHEV S1-RBD (SPR analyte) (domain or fragment)”, the values for the Kd in test [2] and in test [3] were 174 nM and 361 nM, respectively.

On to “murine dipeptidyl peptidase 4, GFP-tagged (from UniProt P28843) A294E; R295E”, for which the percent of parent (% of RBD binding) in test [4] worked out at 95.

Consider “murine dipeptidyl peptidase 4, GFP-tagged (from UniProt P28843) A294T; R295T”, for which the percent of parent (% of RBD binding) in test [4] came to 100.

Take “murine dipeptidyl peptidase 4, GFP-tagged (from UniProt P28843) K267A”: the percent of parent (% of RBD binding) in test [4] was found to be 110.

Take “murine dipeptidyl peptidase 4, GFP-tagged (from UniProt P28843) N229Q”: the percent of parent (% of RBD binding) in test [4] was 350.

Regarding “murine dipeptidyl peptidase 4, GFP-tagged (from UniProt P28843) N321Q”, in test [4], the percent of parent (% of RBD binding) was 250.

Turning to “murine dipeptidyl peptidase 4, GFP-tagged (from UniProt P28843) Q344A”, the percent of parent (% of RBD binding) in test [4] is 120.

Regarding “murine dipeptidyl peptidase 4, GFP-tagged (from UniProt P28843) R317A”, the percent of parent (% of RBD binding) in test [4] turned out to be 92.

For “murine dipeptidyl peptidase 4, GFP-tagged (from UniProt P28843) T336E”, the percent of parent (% of RBD binding) in test [4] is 100.

For “porcine dipeptidyl peptidase 4, GFP-tagged (from UniProt P22411) K267A”, the percent of parent (% of RBD binding) in test [4] turned out to be 84.

On to “porcine dipeptidyl peptidase 4, GFP-tagged (from UniProt P22411) L294E; I295E”, for which the percent of parent (% of RBD binding) in test [4] came out at 110.

Turning to “porcine dipeptidyl peptidase 4, GFP-tagged (from UniProt P22411) L294T; I295T”, the percent of parent (% of RBD binding) in test [4] was 82.

As to “porcine dipeptidyl peptidase 4, GFP-tagged (from UniProt P22411) N229Q”, the percent of parent (% of RBD binding) in test [4] was determined as 190.

“porcine dipeptidyl peptidase 4, GFP-tagged (from UniProt P22411) N321Q”: in test [4], the percent of parent (% of RBD binding) was found to be 170.

Consider “porcine dipeptidyl peptidase 4, GFP-tagged (from UniProt P22411) Q344A”, for which the percent of parent (% of RBD binding) in test [4] was determined as 130.

Regarding “porcine dipeptidyl peptidase 4, GFP-tagged (from UniProt P22411) R317A”, the percent of parent (% of RBD binding) in test [4] turned out to be 98.

“porcine dipeptidyl peptidase 4, GFP-tagged (from UniProt P22411) R336E”: in test [4], the percent of parent (% of RBD binding) came out at 120.

Values taken from article PMC11265280.
